Results published in publication PMC2717645.

Molecular target: taxol-stabilized microtubules (bovine brain tubulin) (bovine) (UniProt Q6B856)
Assay: co-sedimentation

B1: recombinant LC1 (natural protein)
chain: MAKATTIKDAIRIFEERKSVVATEAEKVELHGMIPPIEKMDATLSTLKACKHLALSTNNIEKISSLSGMENLRILSLGRNLIKKIENLDAVADTLEELWISYNQIASLSGIEKLVNLRVLYMSNNKITNWGEIDKLAALDKLEDLLLAGNPLYNDYKENNATSEYRIEVVKRLPNLKKLDGMPVDVDEREQANVARGG
stoichiometry N (LC1 per tubulin monomer): 1.06
